Laboratory results taken from patent publication US6949577B2, “Pharmaceuticals” (Pfizer, Inc., priority 2000, dated 2005).

Tested on: thrombi in the left circumflex (LCX) coronary artery
Assay: Lysis of coronary artery thrombi by TAFIa inhibitor in conjunction with t-PA
Assay type: in vivo, dogs
Description: The study was designed with 4 groups (8 dogs/group): • (i) aspirin pre-treatment/vehicle infusion; • (ii) no pre-treatment/vehicle infusion; • (iii) no pre-treatment/TAFIa inhibitor; and • (iv) aspirin pre-treatment/TAFIa inhibitor.
Thirty minutes after initiating vehicle or compound infusion a continuous electrical current was delivered to the lumen of the left circumflex (LCX) coronary artery to cause endothelial damage and stimulate the production of a thrombus. Thrombi were allowed to mature for 1 hour prior to attempting to lyse the thrombus and cause vessel reperfusion with t-PA. A total of 4 bolus injections of t-PA (each 0.45 mg/kg i.v.) were given sequentially at 15 minute intervals. Blood flow through the coronary artery was then monitored for a further 2 hours so as to assess vessel patency. Time to vessel occlusion, and reperfusion were measured and the quantity and quality of blood flow analysed post-vessel re-perfusion. In addition, the effect of treatment on surgical bleeding, activated clotting time, cutaneous bleeding and platelet aggregation was also assessed.

B1: tPA: recombinant tissue plasminogen activator (tPA), a profibrinolytic antithrombotic (protein, UniProt P00750 36-562, looked up)
Tissue-type plasminogen …: SYQVICRDEKTQMIYQQHQSWLRPVLRSNRVEYCWCNSGRAQCHSVPVKSCSEPRCFNGGTCQQALYFSDFVCQCPEGFAGKCCEIDTRATCYEDQGISYRGTWSTAESGAECTNWNSSALAQKPYSGRRPDAIRLGLGNHNYCRNPDRDSKPWCYVFKAGKYSSEFCSTPACSEGNSDCYFGNGSAYRGTHSLTESGASCLPWNSMILIGKVYTAQNPSAQALGLGKHNYCRNPDGDAKPWCHVLKNRRLTWEYCDVPSCSTCGLRQYSQPQFRIKGGLFADIASHPWQAAIFAKHRRSPGERFLCGGILISSCWILSAAHCFQERFPPHHLTVILGRTYRVVPGEEEQKFEVEKYIVHKEFDDDTYDNDIALLQLKSDSSRCAQESSVVRTVCLPPADLQLPDWTECELSGYGKHEALSPFYSERLKEAHVRLYPSSRCTSQHLLNRTVTDNMLCAGDTRSGGPQANLHDACQGDSGGPLVCLNDGRMTLVGIISWGLGCGQKDVPGVYTKVTNYLDWIRDNMRP
injured vessels patent at the end of the experiment (8 dogs/group, all groups received t-PA): 2/8
blood flow post-reperfusion (FIG. 1) (dogs, t-PA 4 x 0.45 mg/kg i.v. boluses, comparison of treatment groups): superior to the combination of tPA and aspirin
